Our source for the self-cleavage values is the RNAGym collection of RNA variant scans (doi:10.7554/elife.80360).

The chains are these.
B1: Hairpin Ribozyme (parent)
chain: GUCCUCUUUCACGUGCGCGUGAAAGAGAGAAGUGAACCAGAGAAACACACGUUGUGGUAUAUUACCUGGUA

In the data set the parent is B1. Description: self-cleavage, relative activity (ratio to wild type); higher = more cleavage; co-transcriptional.
As to A43C U55G, the self-cleavage was determined as 0.148.
The value for A41U C50G was 0.756; that for A41U A64U was 0.258; that for A41U A64C was 0.153.
The value for A41U A64G was 0.372.
The value for A43U A47C was 0.178; that for G42A G56C was 0.105.
In the case of A41U U58C, the self-cleavage was 1.41.
The value for G42U C48A was 0.215; that for A41G A44U was 0.185.
With G40U A44C the figure was 0.105; with G40U A44U, 0.142.
The value for G42C U63G was 0.238; that for G40C U53C was 0.168; that for G40C U53G was 0.103.
Take G40U U53A: the self-cleavage is 0.121.
For A41G C66U, the self-cleavage came out at 0.682.
As for A41G C66A, the self-cleavage was 0.355.
The value for A43U C65A was 0.0905; that for G42A C48G was 0.127.
The value for A41G G69U was 0.42; that for A43G G68U was 0.092.
The value for A43G G68A was 0.172; that for G42C U53C was 0.491.
On to A43C A64U, for which the self-cleavage is 0.198.
With G40A A59U the figure was 0.136; with A41U G56U, 0.125.
With A41U G56A the figure was 0.285.
With G40A C50G the figure was 0.243; with A41U G51U, 1.5.
For G42U U70A, the self-cleavage was 0.233.
The value for G42U U70C was 0.162; that for A41C U55C was 0.484.
With A43G U58A the figure was 0.128.
The value for A43C U67C was 0.112.
Consider A43C U67A, for which the self-cleavage came out at 0.0731.
With A41C A71U the figure was 1.18.
With A41C A71G the figure was 1.26; with G42U A43C, 0.179.
With G42U A43U the figure was 0.108; with G42U A43G, 0.102.
Turning to G40A C66A, the self-cleavage was determined as 0.322.
The value for A43C G56A was 0.13; that for A43C G56U was 0.141.
The value for A43C G56C was 0.165; that for G42U G54U was 0.191.
On to G42U G54C, for which the self-cleavage came to 0.122.
With G42U G54A the figure was 0.197; with G40A C65G, 0.0639.
With G40U A47C, the self-cleavage came to 0.118.
With G40U A47G the figure was 0.18.
The value for G40U U58A was 0.155; that for G42A A61U was 0.125; that for G42A A61C was 0.0818.
With A41G U62A the figure was 0.0775.
For the variant A41G U62C, the self-cleavage worked out at 0.198.
Turning to A41U C66U, the self-cleavage was 0.46.
A41G A71G: the self-cleavage came to 1.08.
The value for A41G A71C was 1.34; that for A41G A71U was 0.733; that for A43G C50A was 0.131.
With G40U G56C, the self-cleavage was determined as 0.147.
The value for G40U G56A was 0.174; that for G42U U55A was 0.069; that for A43C U60G was 0.0932.
With A43C U60A the figure was 0.162; with G40A G69C, 0.11.
Turning to A41G A47G, the self-cleavage was determined as 0.0362.
With G42U C46U the figure was 0.205.
With G42U C66A the figure was 0.162; with G42A A43C, 0.127; with G40C A64C, 0.126.
The value for G40C A64G was 0.129; that for A41C A59C was 0.17; that for G40U G42A was 0.202.
As to G42A U70C, the self-cleavage worked out at 0.128.
On to A43G U55G, for which the self-cleavage turned out to be 0.128.
Consider G40U U63A, for which the self-cleavage is 0.138.
As for G42C A43G, the self-cleavage came to 0.177.
For the variant G40U C48G, the self-cleavage is 0.189.
For G40U C48U, the self-cleavage was found to be 0.181.
The value for A43G U60C was 0.0979; that for G42A A49G was 0.118.
With G42A C46U the figure was 0.0972; with G42C A71G, 0.339.
The value for G42C A71U was 0.142.
In the case of A41C G42A, the self-cleavage stood at 0.805.
With A43U A44G, the self-cleavage turned out to be 0.163.
As to A41C G57C, the self-cleavage is 0.226.
With G40C A45C the figure was 0.0755.
The value for G42U U67A was 0.151; that for G42U G56C was 0.147; that for G42U G56U was 0.169.
As to A41C U52G, the self-cleavage amounted to 0.654.
The value for A41U A61C was 0.39; that for A43G U67G was 0.207; that for A43G U67C was 0.153.
With A41U A43U the figure was 0.187.
The value for G42A U62C was 0.133; that for G42A U62A was 0.151.
For A41U A45G, the self-cleavage amounted to 0.218.
On to A43U A61C, for which the self-cleavage was determined as 0.123.
The value for A43U A61G was 0.144; that for G40A U53G was 0.169.
With G40A U53C the figure was 0.46; with A43C C50A, 0.162; with A43C C50G, 0.143.
The value for A43U C48A was 0.206; that for G42C C48G was 0.113; that for G42C C48U was 0.143.
On to A41U U53G, for which the self-cleavage amounted to 1.16.
For the variant A41C A47U, the self-cleavage amounted to 0.229.
With G40U C65A the figure was 0.158.
Consider G42C C65A, for which the self-cleavage is 0.21.
With G40C G56C the figure was 0.122; with G40C G57U, 0.106.
The value for G40C G57C was 0.134.
With G40C the figure was 0.128; with G40U, 0.175; with A41G A64G, 0.326.
With G42C A59U, the self-cleavage amounted to 0.156.
Take G42C A59C: the self-cleavage amounted to 0.188.
With A41G C65U the figure was 1.05; with A43G C66A, 0.171; with A43G C66G, 0.0518.
The value for A43G C66U was 0.139; that for G40A C48A was 0.246.
The value for G40A C48U was 0.136; that for G40A C48G was 0.135.
Regarding A43G C65G, the self-cleavage amounted to 0.117.
The value for G40U U70C was 0.12; that for G40C G68U was 0.148; that for G42C U62C was 0.221.
The value for G42C U62A was 0.102; that for G42C U62G was 0.0896; that for G42A G68U was 0.144.
The value for A41G U55G was 0.138.
With A41G G56A, the self-cleavage is 0.255.
With G40U G51C the figure was 0.104; with A41U G57U, 0.493.
With A41C A61G the figure was 0.304.
The value for G42U C50G was 0.26; that for G42U C50A was 0.189.
With A41G A61C, the self-cleavage amounted to 0.299.
With A41G A61U the figure was 0.195; with A43C A45C, 0.153.
The value for G40A U62C was 0.141; that for G40A U62A was 0.12.
The value for G42A U53C was 0.388; that for G42A U53G was 0.237; that for A41G C50A was 0.255.
Regarding G42C U70G, the self-cleavage was determined as 0.145.
Consider G42U U58A, for which the self-cleavage was 0.0966.
In the case of G40C A43C, the self-cleavage came out at 0.168.
The value for G40C A43U was 0.128; that for A41G C46A was 0.151; that for G40A G51U was 0.404.
Consider G42C C66A, for which the self-cleavage stood at 0.103.
The value for G42C C66U was 0.13.
With G42C C66G the figure was 0.137; with G42A U58C, 0.21.
The value for G42C G56C was 0.159.
As to G42U A61U, the self-cleavage worked out at 0.283.
The value for A43C A47U was 0.24.
With A43C A47C the figure was 0.0231.
With G40C A47C the figure was 0.142; with A41U G42C, 0.464.
